# Ends that are not written are not given here.
# What was measured:
# [1] = molecular target: T1, purified bovine vascular ANP receptor protein (Bos taurus, UniProt P10730); experiment: Competitive binding of 125I-ANP(4-28) against ANP peptides to purified ANP receptor protein; details: for relative Ki value: purified bovine receptor, competition with 125I-ANP(4-28)
# T1 construct: mature receptor protein is a 496 amino acid polypeptide, expressed as a propeptide; endogenous in cells; host or cells: bovine aortic smooth muscle (BASM) cells, cultured
# T1 sequence (P10730 42-537): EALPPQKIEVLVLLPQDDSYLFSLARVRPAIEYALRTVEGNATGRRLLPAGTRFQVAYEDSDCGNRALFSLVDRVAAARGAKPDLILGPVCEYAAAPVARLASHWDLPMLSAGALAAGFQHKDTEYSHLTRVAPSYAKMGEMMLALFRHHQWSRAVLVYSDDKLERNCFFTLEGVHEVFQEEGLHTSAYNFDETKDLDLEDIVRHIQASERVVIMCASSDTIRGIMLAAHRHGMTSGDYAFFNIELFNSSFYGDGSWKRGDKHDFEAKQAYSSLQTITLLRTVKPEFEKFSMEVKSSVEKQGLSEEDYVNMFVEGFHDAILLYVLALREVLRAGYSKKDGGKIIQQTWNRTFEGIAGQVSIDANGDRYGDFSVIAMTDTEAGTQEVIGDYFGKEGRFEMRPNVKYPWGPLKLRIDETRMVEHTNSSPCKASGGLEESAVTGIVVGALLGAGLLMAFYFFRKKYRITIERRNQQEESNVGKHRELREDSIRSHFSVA
# Method: To characterize the purified native bovine vascular ANP receptor protein further, its activity as a receptor in vitro was studied. The following ANP peptides, described in Schenk et al. (II), supra, were employed; ANP(4-28), ANP(7-28), and ANP(5-25). Bmax, Ki and Kd were calculated by standard methods. See, e.g., Scatchard (1949) Ann. N.Y. Acad. Sci., pp. 600-672. […] This corresponds to a stoichiometry of ANP to receptor protein of 1:3/subunit, or 0.7:1/holoreceptor.
# An affinity matrix was made by coupling 40 mg human ANP(4-28) to 4 ml of Affi-gel 10 (Bio-Rad) as described by the manufacturer. Solubilized ANP receptor was adjusted to 10 mM CaCl2 and MgCl2 and filtered through […] (type GE, Millipore). The filtrate was chromatographed on the ANP-agarose column at a flow rate of 0.5 ml/min at 21° C. The column was washed with binding buffer (100 mM Tris HCl, pH 7.50; 100 mM NaCl; 4 mg/ml C12 E8; 10 mM CaCl2; and 10 mM MgCl2) until the effluent reached A280 =0.000. Then 6.0 ml of elution buffer (10 mM Na acetate, pH 5.00:100 mM NaCl; 4 mg/ml C12 E8; 10 mM CaCl2; 10 mM MgCl2) was added and the eluent was placed on ice and immediately adjusted to 37% (v/v) acetone. The solution was centrifuged at 4,000×g for 10 min at 4° C. and thoroughly aspirated. The pellet was resuspended in 3.0 ml of binding buffer and analyzed for purity, receptor binding activity, and amino acid sequence.
# The tested ANP peptide included hANP(4-28), hANP(7-28) and atriopeptin I. Gamma-melanocyte stimulating hormone ([…]) was employed as a negative control. […] This corresponds to a stoichiometry of ANP to receptor protein of 1:3 kd subunit, or 0.7:1.0/holoreceptor.
# Additional studies were conducted with ANP peptides.
# [2] = molecular target: T2, ANP receptor (pANPRc-1/4) expressed in Xenopus oocytes (Bos taurus, UniProt P10730); experiment: ANP binding to recombinant ANP receptor (pANPRc-1/4) in solubilized membranes of mRNA-injected Xenopus oocytes; set-up: species or system bovine
# T2 construct: contains a 2290 base pair DNA insert which includes the entire open reading frame; expressed in transfected cells; host or cells: Xenopus oocytes injected with synthetic RNA from pANPRc-1/4; solubilized crude membranes
# T2 sequence (P10730 42-537): T1 sequence (P10730 42-537)
# Method: The receptor coding sequence from pANPRc-1/4 was cloned into pGEM1 (ProMega, Madison, Wis.) and RNA prepared according to the supplier's instructions. Oocyte preparation and injection were performed essentially as described, Gurdon et al. (1983) Meth. Enzymol. 101:370-386. Typically, each oocyte was injected with 50 nl 50 ng synthetic RNA followed by incubation in modified Barth's saline at 21° C. for 48 hr. Crude membranes were prepared and solubilized in receptor binding buffer (2 mg/ml C12 E8, 100 mM NaCl, 10 mM MgCl2, 10 mM CaCl2 and 100 mM Tris:HCl; pH 7.5). Binding was measured after incubating 0.5 ml of membrane suspension containing 10 μg protein with 2×10^5 cpm of ^125 I! […] (1×10^3 cpm/fmol) and the indicated concentration of unlabeled ANP analog for 30 min at 21° C. Reactions were terminated and free peptide separated from bound by precipitation with acetone (40% v/v final). Counts bound in the absence of unlabeled ligand were 2048±374 cpm while nonspecific binding (counts bound in the presence of 20 nM rANP) were 592±89 cpm.
# Only low level, nonspecific binding was detected in membranes of uninfected, or mock injected eggs. […] Both […] and the truncated analog […] for binding. The Ii apparent obtained from the experiment was 0.27 nM for both analogs.
Substance,"Bmax for receptor binding ([1]; computer analysis of binding data, b45 adds '75% receptor activity') [nmol/mg protein]","Kd ([1]; computer analysis of binding data, purified receptor) [pM]",relative Ki value [1] [pM],effect on binding of radiolabeled ANP ([2]; even at 100 μM),competition for binding ([2]; solubilized oocyte membranes)
"ANP(4-28): ANP peptide described in Schenk et al. (II) (RSSCFGGRMDRIGAQSGLGCNSFRY; ends and bridges not checked; cysteine pairing not given here; UniProt P01160 127-151, looked up, fragment)",5.7,300,300,–,–
"ANP(5-25): ANP peptide described in Schenk et al. (II) (SSCFGGRMDRIGAQSGLGCNS; ends and bridges not checked; cysteine pairing not given here; UniProt P01160 128-148, looked up, fragment)",–,–,1120,–,–
"ANP(7-28): ANP peptide described in Schenk et al. (II) (CFGGRMDRIGAQSGLGCNSFRY; ends and bridges not checked; cysteine pairing not given here; UniProt P01160 130-151, looked up, fragment)",–,–,1100,–,–
"Bombesin: bombesin, an unrelated tetradecapeptide (Peninsula Labs)",–,–,–,no effect on binding,did not compete for binding
